Assay results: US11059864B2, “Chimeric antigen receptor (CAR) modulation” (TRUSTEES OF BOSTON UNIVERSITY, priority 2019, dated 2021)

Legend:
[1] = tested on: Jurkat T cells; test: NS3 OFF CAR: CD69 levels in Jurkat cells (components on separate vectors); type: cell-based; settings: Jurkat cells expressing OFF-switch components; presence of grazoprevir
Experimental: (§1) FIG. 8A-8D is a series of schematics and graphs showing testing of variations of the NS3 OFF CAR in Jurkat T cells. […] Combinations of components were tested as indicated. Each was introduced on a separate vector.
(§2) Two different versions of the first component (c and d) and four different versions of the second component of the OFF-switch (i, ii, iii, and iv) were tested in Jurkat T cells. […] The OFF-switch CARs can also function when expressed in a single vector (see e.g., FIG. 9A-9C, FIG. 10A-10D).

[2] = tested on: NFAT; test: NS3 OFF CAR: NFAT-GFP levels in Jurkat T cells (components on separate vectors); type: cell-based; settings: Jurkat T cells expressing two-component OFF-switch; presence of grazoprevir
Experimental: as §1
NS3 CAR OFF switches, comprising first and second components, were constructed as described herein. The first component comprises a peptide, which is specific for the NS3 of the second component, thus bringing the two components together.
as §2

[3] = tested on: Her2-expressing NALM cells; test: Cell killing by Her2-specific NS3 CAR CD8+ T cells; type: cell-based, human
Experimental: FIG. 3A-3B is a series of graphs. FIG. 3A is a bar graph showing the killing efficiency of CD8+ T cells following expression of the NS3 CAR constructs or traditional CAR, in the presence or absence of GZV.
To further evaluate the downstream effector function of NS3 CAR T cells, their cell killing abilities were tested. Her2-specific NS3 CAR CD8+ T cells were mixed with Her2-expressing NALM cells at a 1:1 ratio and the extent of cell killing determined.
By varying the dose of NS3 inhibitor, the level of CD8+ T cell-mediated killing could be modulated.

[4] = molecular target: NS3a-genotype 1b (Hepatitis C virus genotype 1b, UniProt P26662, S1165A); settings: read-out: affinity of basal complex with NS3a-genotype 1b; cited from earlier work
NS3a-genotype 1b, sequence (P26662 1029-1207 D1056E/L1062V/P1112Q/M1120L/V1140I/I1158V/S1165A/V1176A/I1196V): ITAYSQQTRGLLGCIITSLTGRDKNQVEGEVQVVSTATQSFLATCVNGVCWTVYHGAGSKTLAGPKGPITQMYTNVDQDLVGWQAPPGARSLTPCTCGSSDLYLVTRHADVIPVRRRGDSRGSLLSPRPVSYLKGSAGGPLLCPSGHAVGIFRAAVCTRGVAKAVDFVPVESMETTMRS

[5] = molecular target: T1, NS3a/danoprevir complex (Hepatitis C virus genotype 1a, UniProt P27958); settings: cited from earlier work
T1 construct: comprise the N-terminal 180 amino acids of the NS3 protein
T1 sequence (P27958 1027-1208, one chain of several): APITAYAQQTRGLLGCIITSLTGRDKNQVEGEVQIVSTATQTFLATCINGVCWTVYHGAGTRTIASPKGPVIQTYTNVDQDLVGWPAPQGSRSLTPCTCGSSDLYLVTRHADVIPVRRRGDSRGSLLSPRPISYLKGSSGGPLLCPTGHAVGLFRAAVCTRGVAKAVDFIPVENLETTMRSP

[6] = molecular target: T2, asunaprevir-bound NS3a (Hepatitis C virus genotype 1a, UniProt P27958); settings: cited from earlier work
T2 construct: comprise the N-terminal 180 amino acids of the NS3 protein
T2 sequence (P27958 1027-1208): as the sequence (P27958 1027-1208, one chain of several) above

[7] = tested on: grazoprevir/NS3a complex; settings: cited from earlier work
grazoprevir/NS3a complex, sequence (P27958 1027-1208, one chain of several): as above

[8] = molecular target: T3, apo NS3a (Hepatitis C virus genotype 1a, UniProt P27958); settings: cited from earlier work
T3 construct: comprise the N-terminal 180 amino acids of the NS3 protein
T3 sequence (P27958 1027-1208): as the sequence (P27958 1027-1208, one chain of several) above

[9] = tested on: Her2+ target NALM cells; test: CD69 expression in CD4+ and CD8+ primary T cells expressing NS3 CARs mixed with target cells; type: cell-based; settings: human CD4+ and CD8+ primary T cells; presence or absence of grazoprevir and/or Her2+ target NALM cells
Source text: (§3) FIG. 2A-2B is a series of bar graphs. FIG. 2A is a series of bar graphs showing CD69 expression in CD4+ and CD8+ T cells following expression of the NS3 CAR constructs or traditional CAR, in the presence or absence of GZV (Grazoprevir) and/or target cell. FIG. 2B is a series of bar graphs showing CD4+ and CD8+ T cell IL-2 and IFN-gamma cytokine release following expression the NS3 CAR constructs or traditional CAR, in the presence or absence of GZV and/or target cell.
(§4) These CARs were introduced into human CD4+ and CD8+ primary T cells and tested for functionality by mixing with Her2+ target NALM cells. As a readout for NS3 CAR control over T cell activity, levels of CD69 (an early T cell activation marker) and cytokine release (indicative of downstream effector function) were measured. It is expected that in the absence of grazoprevir (an NS3 inhibitor), the CAR is dismantled, rendering it non-functional. Once grazoprevir is added, the full CAR is assembled, thus allowing the T cell to activate when Her2-expressing target cells are present (see e.g., FIG. 1B).

[10] = tested on: Her2+ target NALM cells; test: IL-2 and IFN-gamma cytokine release by CD4+ and CD8+ primary T cells expressing NS3 CARs; type: cell-based; settings: human CD4+ and CD8+ primary T cells; presence or absence of grazoprevir and/or Her2+ target NALM cells
Source text: as §3, §4

In the case of `C=C[C@@H]1C[C@]1(NC(=O)[C@@H]1C[C@@H]2CN1C(=O)[C@H](C(C)(C)C)NC(=O)O[C@@H]1C[C@H]1CCCCCc1nc3ccc(OC)cc3nc1O2)C(=O)NS(=O)(=O)C1CC1` [grazoprevir], the CD69 levels [1] is reported as “diminished to baseline”, the NFAT-GFP levels [2] is reported as “diminished to baseline” and the “cell killing ability versus level of NS3 inhibitor” value ([3]; CD8+ T cells expressing the V2 NS3 CAR, 1:1 ratio, NS3 inhibitor varied between 0 uM-5 uM) is reported as “can be used to regulate the level of killing efficiency”. For the same molecule, the “killing efficiency versus concentration of Grazoprevir” value ([3]; traditional CAR T cells or wild-type cells) was “does not impact traditional CAR T cells or wild-type cells”.

For “apo NS3a reader peptide GELDELVYLLDGPGYDPIHSD, SEQ ID NO: 204 [ANR]”, the Kd [4] is given as 10 nM.

B1: D5: reader domain, SEQ ID NO: 206, 229 aa (protein)
chain: SSDEEEARELIERAKEAAERAQEAAERTGDPRVRELARELKRLAQEAAEEVKRDPSSSDVNEALKLIVEAIEAAVDALEAAERTGDPEVRELARELVRLAVEAAEEVQRNPSSSDVNEALLTIVIAIEAAVNALEAAERTGDPEVRELARELVRLAVEAAEEVQRNPSSREVNIALWKIVLAIQEAVESLREAEESGDPEKREKARERVREAVERAEEVQRDPSGWLNH
In the case of B1, the “binding of NS3 in the presence of danoprevir (danoprevir-bound NS3a)” value (“binding of NS3 … (danoprevir-bound NS3a)” below) [5] is given as “moderate binding”, the “binding of NS3 in the presence of asunaprevir (asunaprevir-bound NS3a)” value (shortened to “binding of NS3 … (asunaprevir-bound NS3a)”) [6] is given as “some binding” and the “binding of NS3 in the presence of grazoprevir” value (shortened to “binding of NS3 … of grazoprevir”) [7] is given as “moderate binding”.

B2: DNCR2: danoprevir/NS3 complex reader domain, SEQ ID NO: 101, 229 aa (protein)
chain: SSDEEEARELIERAKEAAERAQEAAERTGDPRVRELARELKRLAQEAAEEVKRDPSSSDVNEALKLIVEAIEAAVDALEAAERTGDPEVRELARELVRLAVEAAEEVQRNPSSSDVNEALHSIVYAIEAAIFALEAAERTGDPEVRELARELVRLAVEAAEEVQRNPSSRNVEHALMRIVLAIYLAEENLREAEESGDPEKREKARERVREAVERAEEVQRDPSGWLNH
For B2, the “binding to apo NS3a” value [8] is given as “no detectable binding”, the “selectivity over NS3a bound to the drugs grazoprevir or asunaprevir” value [5] is given as > 20,000 fold and the Kd ([5]; read-out: affinity for the NS3a/danoprevir complex) is given as 0.036 nM.

B3: DNCR1: danoprevir/NS3 complex reader domain, SEQ ID NO: 207, 229 aa (protein)
chain: SSDEEEARELIERAKEAAERAQEAAERTGDPRVRELARELKRLAQEAAEEVKRDPSSSDVNEALKLIVEAIEAAVDALEAAERTGDPEVRELARELVRLAVEAAEEVQRNPSSSDVNEALLSIVIAIEAAVHALEAAERTGDPEVRELARELVRLAVEAAEEVQRNPSSREVEHALMKIVLAIYEAEESLREAEESGDPEKREKARERVREAVERAEEVQRDPSGWLNH
For B3, the “binding of NS3 … (danoprevir-bound NS3a)” value [5] is given as “high binding”, the “binding of NS3 … (asunaprevir-bound NS3a)” value [6] is given as “minimal binding” and the “binding of NS3 … of grazoprevir” value [7] is given as “minimal binding”.

B4: GNCR1: grazoprevir/NS3 complex reader domain, SEQ ID NO: 105, 233 aa (protein)
chain: DIEKLCKKAEEEAKEAQEKADELRQRHPDSQAAEDAEDLANLAVAAVLTACLLAQEHPNADIAKLCIKAASEAAEAASKAAELAQRHPDSQAARDAIKLASQAARAVILAIMLAAENPNADIAKLCIKAASEAAEAASKAAELAQRHPDSQAARDAIKLASQAAEAVERAIWLAAENPNADIAKKCIKAASEAAEEASKAAEEAQRHPDSQKARDEIKEASQKAEEVKERCKS
In the case of B4, the “binding to apo NS3a” value [8] is given as “little to no affinity”, the “binding of NS3 … (danoprevir-bound NS3a)” value [5] is given as “little to no affinity” and the “binding of NS3 … (asunaprevir-bound NS3a)” value [6] is given as “little to no affinity”. The Kd ([7]; read-out: affinity for the grazoprevir/NS3a complex) was 140 nM.

B5: G5: reader domain, SEQ ID NO: 208 (named G3 in the sequence listing), 233 aa (protein)
chain: DIEKLCKKAEEEAKEAQEKADELRQRHPDSQAAEDAEDLANEAEAAVLAACSLAQEHPNADIAKLCIKAASEAAEAASKAAELAQRHPDSQAARDAIKLASQAARAVILAIMLAAENPNADIAKLCIKAASEAAEAASKAAELAQRHPDSQAARDAIKLASQAAEAVERAIWLAAENPNADIAKKCIKAASEAAEEASKAAEEAQRHPDSQKARDEIKEASQKAEEVKERCKS
In the case of B5, the “binding of NS3 … (danoprevir-bound NS3a)” value [5] is given as “no binding”, the “binding of NS3 … (asunaprevir-bound NS3a)” value [6] is given as “some binding” and the “binding of NS3 … of grazoprevir” value [7] is given as “moderate binding”.

B6: Traditional CAR: traditional third-generation Her2 CAR without NS3; SEQ ID NO: 4, 37 (protein)
chain: ALPVTALLLPLALLLHAARPKYLLPTAAAGLLLLAAQPAMAQVQLVQSGAEVKKPGESLKISCKGSGYSFTSYWIAWVRQMPGKGLEYMGLIYPGDSDTKYSPSFQGQVTISVDKSVSTAYLQWSSLKPSDSAVYFCARHDVGYCTDRTCAKWPEYFQHWGQGTLVTVSSGGGGSGGGGSGGGGSQSVLTQPPSVSAAPGQKVTISCSGSSSNIGNNYVSWYQQLPGTAPKLLIYDHTNRPAGVPDRFSGSKSGTSASLAISGFRSEDEADYYCASWDYTLSGWVFGGGTKLTVLGGKPIPNPLLGLDSTNGAATTTPAPRPPTPAPTIALQPLSLRPEACRPAAGGAVHTRGLDFACDFWVLVVVGGVLACYSLLVTVAFIIFWVRSKRSRLLHSDYMNMTPRRPGPTRKHYQPYAPPRDFAAYRSKRGRKKLLYIFKQPFMRPVQTTQEEDGCSCRFPEEEEGGCELRVKFSRSADAPAYKQGQNQLYNELNLGRREEYDVLDKRRGRDPEMGGKPRRKNPQEGLYNELQKDKMAEAYSEIGMKGERRRGKGHDGLYQGLSTATKDTYDALHMQALPPR
With B6 the CD69 expression [9] was “no response to the NS3 inhibitor” and the “IL-2 and IFN-gamma cytokine release” value [10] was “no response to the NS3 inhibitor”.
